Source: article PMC2729916 (Nature, 2009)

Key:
Assay in all cases: far-Western, overlay or dot blot
FLAG-UvrA (E. coli) = target: T1, FLAG-UvrA (E. coli) (E. coli, UniProt P0A698 1-940)
T1 sequence (looked up): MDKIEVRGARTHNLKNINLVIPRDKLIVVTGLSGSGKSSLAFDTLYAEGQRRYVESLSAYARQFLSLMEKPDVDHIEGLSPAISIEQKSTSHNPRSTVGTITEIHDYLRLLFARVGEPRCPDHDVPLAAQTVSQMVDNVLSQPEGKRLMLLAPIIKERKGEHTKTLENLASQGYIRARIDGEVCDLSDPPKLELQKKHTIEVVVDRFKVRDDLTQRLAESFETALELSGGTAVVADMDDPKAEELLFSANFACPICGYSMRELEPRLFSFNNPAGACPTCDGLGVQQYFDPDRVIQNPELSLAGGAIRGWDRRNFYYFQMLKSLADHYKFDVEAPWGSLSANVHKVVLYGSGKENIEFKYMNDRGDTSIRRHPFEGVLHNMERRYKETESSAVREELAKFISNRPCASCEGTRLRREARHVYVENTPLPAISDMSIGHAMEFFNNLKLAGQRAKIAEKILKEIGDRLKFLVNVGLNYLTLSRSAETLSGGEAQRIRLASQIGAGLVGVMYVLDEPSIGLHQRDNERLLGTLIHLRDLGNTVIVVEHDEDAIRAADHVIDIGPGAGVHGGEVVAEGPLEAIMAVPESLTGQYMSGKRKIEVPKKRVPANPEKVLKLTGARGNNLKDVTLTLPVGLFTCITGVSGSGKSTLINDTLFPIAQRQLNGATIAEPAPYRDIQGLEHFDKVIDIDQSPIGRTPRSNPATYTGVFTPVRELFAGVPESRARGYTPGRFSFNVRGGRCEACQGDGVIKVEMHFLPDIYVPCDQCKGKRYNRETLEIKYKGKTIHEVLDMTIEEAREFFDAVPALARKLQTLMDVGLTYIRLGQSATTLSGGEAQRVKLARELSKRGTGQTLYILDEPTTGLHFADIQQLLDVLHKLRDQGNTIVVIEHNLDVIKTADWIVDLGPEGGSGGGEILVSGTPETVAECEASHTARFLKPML

E. coli UvrA = target: T2, E. coli UvrA (E. coli, UniProt P0A698 1-940)
T2 sequence (looked up): T1 sequence (looked up)

E. coli UvrC = target: T3, E. coli UvrC (E. coli, UniProt P0A8G0 1-610)
T3 sequence (looked up): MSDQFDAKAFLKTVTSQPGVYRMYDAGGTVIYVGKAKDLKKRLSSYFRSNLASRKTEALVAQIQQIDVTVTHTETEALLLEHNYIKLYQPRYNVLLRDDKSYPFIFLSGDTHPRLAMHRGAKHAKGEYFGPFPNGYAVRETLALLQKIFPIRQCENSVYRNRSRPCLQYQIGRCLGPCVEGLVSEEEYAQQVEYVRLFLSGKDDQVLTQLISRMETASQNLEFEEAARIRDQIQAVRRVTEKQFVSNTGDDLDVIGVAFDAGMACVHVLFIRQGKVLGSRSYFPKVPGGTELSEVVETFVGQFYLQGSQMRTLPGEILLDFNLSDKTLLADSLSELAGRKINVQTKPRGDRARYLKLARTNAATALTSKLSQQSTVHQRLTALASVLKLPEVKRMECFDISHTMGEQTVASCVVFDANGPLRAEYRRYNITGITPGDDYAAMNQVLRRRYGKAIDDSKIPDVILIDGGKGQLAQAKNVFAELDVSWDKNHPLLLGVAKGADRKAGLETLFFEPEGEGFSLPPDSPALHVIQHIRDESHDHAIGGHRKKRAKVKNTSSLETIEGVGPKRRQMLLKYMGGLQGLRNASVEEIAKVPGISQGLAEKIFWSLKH

B1: S. pombe Atl1 (alkyltransferase-like protein 1) (natural protein)
chain: MRMDEFYTKVYDAVCEIPYGKVSTYGEIARYVGMPSYARQVGQAMKHLHPETHVPWHRVINSRGTISKRDISAGEQRQKDRLEEEGVEIYQTSLGEYKLNLPEYMWKP
B1: binds (FLAG-UvrA (E. coli)).

B2: FLAG-eAtl (E. coli alkyltransferase-like protein) (natural protein, UniProt P0AFP2 1-129, looked up)
chain: MLVSCAMRLHSGVFPDYAEKLPQEEKMEKEDSFPQRVWQIVAAIPEGYVTTYGDVAKLAGSPRAARQVGGVLKRLPEGSTLPWHRVVNRHGTISLTGPDLQRQRQALLAEGVMVSGSGQIDLQRYRWNY
B2: binds (E. coli UvrA); binds (E. coli UvrC).
